Measurements from US20220143024A1, “METHODS OF USING IMIPRIDONES” (Board of Regents, The University of Texas System, priority 2019, published 2022).

Tests used:
Assay in all cases: BioID-MS +ONC201
AARS2 (human) = AARS2 (human) (UniProt Q5JTZ9)
ABCB10 (human) = ABCB10 (human) (UniProt Q9NRK6)
ABCB7 (human) = ABCB7 (human) (UniProt O75027)
ACAD10 (human) = ACAD10 (human) (UniProt Q6JQN1)
AFG3L2 (human) = AFG3L2 (human) (UniProt Q9Y4W6)
AIFM1 (human) = AIFM1 (human) (UniProt O95831)
ARG2 (human) = ARG2 (human) (UniProt P78540)
BCKDHA (human) = BCKDHA (human) (UniProt P12694)
Sequence of BCKDHA (human) (P12694 46-445 limits assumed): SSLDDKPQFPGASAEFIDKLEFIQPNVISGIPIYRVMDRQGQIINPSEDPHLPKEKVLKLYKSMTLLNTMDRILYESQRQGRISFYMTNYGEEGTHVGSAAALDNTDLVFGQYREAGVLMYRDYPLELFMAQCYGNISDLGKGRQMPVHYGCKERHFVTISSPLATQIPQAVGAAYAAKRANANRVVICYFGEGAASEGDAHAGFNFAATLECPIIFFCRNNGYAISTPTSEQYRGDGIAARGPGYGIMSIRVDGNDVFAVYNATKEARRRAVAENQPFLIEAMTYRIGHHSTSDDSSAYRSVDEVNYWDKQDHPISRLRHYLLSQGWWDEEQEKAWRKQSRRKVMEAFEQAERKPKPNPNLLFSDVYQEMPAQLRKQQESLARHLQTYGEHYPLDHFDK

BCS1L (human) = BCS1L (human) (UniProt Q9Y276)
C20orf72 (human) = C20orf72 (human) (UniProt Q9BQP7)
CHCHD3 (human) = CHCHD3 (human) (UniProt Q9NX63)
COQ6 (human) = COQ6 (human) (UniProt Q9Y2Z9)
FMC1 (human) = FMC1 (human) (UniProt Q96HJ9)
GBAS (human) = GBAS (human) (UniProt O75323)
Sequence of GBAS (human) (O75323 24-286 limits assumed): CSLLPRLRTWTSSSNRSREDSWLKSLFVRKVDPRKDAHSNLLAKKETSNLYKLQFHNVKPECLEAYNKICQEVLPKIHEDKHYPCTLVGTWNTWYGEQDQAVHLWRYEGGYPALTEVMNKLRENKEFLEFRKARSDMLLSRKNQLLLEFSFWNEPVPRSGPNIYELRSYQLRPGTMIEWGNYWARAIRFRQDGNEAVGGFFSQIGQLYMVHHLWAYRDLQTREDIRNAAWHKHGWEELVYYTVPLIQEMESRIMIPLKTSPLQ

GCDH (human) = GCDH (human) (UniProt Q92947)
GLS (human) = GLS (human) (UniProt O94925)
Sequence of GLS (human) (O94925 55-669 limits assumed): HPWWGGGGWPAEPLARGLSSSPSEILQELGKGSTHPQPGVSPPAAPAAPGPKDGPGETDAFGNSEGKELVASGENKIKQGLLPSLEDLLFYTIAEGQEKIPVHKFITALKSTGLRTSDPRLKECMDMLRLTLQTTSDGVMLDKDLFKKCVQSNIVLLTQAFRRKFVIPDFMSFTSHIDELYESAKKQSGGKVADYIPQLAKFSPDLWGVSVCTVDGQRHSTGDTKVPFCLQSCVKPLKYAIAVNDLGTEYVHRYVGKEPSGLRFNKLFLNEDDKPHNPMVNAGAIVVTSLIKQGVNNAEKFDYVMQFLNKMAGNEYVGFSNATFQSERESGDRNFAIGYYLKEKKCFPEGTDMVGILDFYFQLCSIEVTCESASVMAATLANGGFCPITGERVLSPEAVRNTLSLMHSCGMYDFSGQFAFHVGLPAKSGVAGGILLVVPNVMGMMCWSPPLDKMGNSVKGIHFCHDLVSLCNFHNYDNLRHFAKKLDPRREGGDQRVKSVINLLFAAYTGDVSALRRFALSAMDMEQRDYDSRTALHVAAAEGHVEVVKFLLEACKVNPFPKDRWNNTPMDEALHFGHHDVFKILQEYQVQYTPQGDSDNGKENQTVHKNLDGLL

GTPBP10 (human) = GTPBP10 (human) (UniProt A4D1E9)
HIBCH (human) = HIBCH (human) (UniProt Q6NVY1)
HINT2 (human) = HINT2 (human) (UniProt Q9BX68)
Sequence of HINT2 (human) (Q9BX68 18-163 limits assumed): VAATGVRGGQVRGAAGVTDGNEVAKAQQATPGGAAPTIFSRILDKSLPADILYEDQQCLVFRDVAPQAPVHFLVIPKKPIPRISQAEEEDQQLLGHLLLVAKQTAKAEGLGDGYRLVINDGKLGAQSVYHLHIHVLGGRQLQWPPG

IARS2 (human) = IARS2 (human) (UniProt Q9NSE4)
Sequence of IARS2 (human) (Q9NSE4 49-1012 limits assumed): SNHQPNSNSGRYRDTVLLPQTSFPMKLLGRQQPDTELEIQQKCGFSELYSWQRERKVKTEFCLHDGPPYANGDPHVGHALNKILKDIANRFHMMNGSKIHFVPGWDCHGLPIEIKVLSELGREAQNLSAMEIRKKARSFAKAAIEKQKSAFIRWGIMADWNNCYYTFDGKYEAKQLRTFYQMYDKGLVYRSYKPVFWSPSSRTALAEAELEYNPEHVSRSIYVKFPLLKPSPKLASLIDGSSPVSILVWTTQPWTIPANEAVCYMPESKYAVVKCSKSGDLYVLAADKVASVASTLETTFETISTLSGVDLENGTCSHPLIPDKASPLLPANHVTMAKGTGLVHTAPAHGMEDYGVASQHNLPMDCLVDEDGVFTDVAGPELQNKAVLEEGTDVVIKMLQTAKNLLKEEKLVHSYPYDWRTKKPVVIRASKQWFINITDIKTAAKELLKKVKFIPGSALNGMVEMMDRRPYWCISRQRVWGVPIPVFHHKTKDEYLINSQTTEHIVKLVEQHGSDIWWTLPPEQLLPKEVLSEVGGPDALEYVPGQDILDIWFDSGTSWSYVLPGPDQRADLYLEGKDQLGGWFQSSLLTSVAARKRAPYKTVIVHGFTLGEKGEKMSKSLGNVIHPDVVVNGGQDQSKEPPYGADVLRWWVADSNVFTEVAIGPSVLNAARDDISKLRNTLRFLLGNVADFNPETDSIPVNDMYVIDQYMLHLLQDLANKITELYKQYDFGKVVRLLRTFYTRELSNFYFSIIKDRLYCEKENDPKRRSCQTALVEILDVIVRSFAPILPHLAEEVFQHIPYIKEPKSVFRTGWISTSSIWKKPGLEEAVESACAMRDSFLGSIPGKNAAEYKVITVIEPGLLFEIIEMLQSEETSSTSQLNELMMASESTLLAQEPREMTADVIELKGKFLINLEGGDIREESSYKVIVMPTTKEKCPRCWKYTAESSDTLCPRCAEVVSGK

IBA57 (human) = IBA57 (human) (UniProt Q5T440)
Sequence of IBA57 (human) (Q5T440 40-356 limits assumed): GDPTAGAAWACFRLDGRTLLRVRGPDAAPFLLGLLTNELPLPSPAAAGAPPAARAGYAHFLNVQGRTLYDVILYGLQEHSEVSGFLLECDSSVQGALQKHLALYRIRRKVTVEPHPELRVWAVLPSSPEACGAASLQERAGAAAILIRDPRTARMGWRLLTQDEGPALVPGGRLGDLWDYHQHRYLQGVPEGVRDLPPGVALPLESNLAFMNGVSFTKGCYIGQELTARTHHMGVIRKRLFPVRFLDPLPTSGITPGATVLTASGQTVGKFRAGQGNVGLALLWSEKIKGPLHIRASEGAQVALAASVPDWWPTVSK

IDE (human) = IDE (human) (UniProt P14735)
LYRM7 (human) = LYRM7 (human) (UniProt Q5U5X0)
Sequence of LYRM7 (human) (Q5U5X0 whole entry): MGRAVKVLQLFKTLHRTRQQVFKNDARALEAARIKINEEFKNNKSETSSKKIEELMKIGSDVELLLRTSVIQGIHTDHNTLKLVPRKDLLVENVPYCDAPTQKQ

METTL17 (human) = METTL17 (human) (UniProt Q9H7H0)
MICU2 (human) = MICU2 (human) (UniProt Q8IYU8)
MRM3 (human) = MRM3 (human) (UniProt Q9HC36)
MRPL10 (human) = MRPL10 (human) (UniProt Q7Z7H8)
MRPL19 (human) = MRPL19 (human) (UniProt P49406)
MRPL44 (human) = MRPL44 (human) (UniProt Q9H9J2)
MRPS11 (human) = MRPS11 (human) (UniProt P82912)
MRPS17 (human) = MRPS17 (human) (UniProt Q9Y2R5)
MRPS6 (human) = MRPS6 (human) (UniProt P82932)
MTHFD1L (human) = MTHFD1L (human) (UniProt Q6UB35)
NDUFS8 (human) = NDUFS8 (human) (UniProt O00217)
NFS1 (human) = NFS1 (human) (UniProt Q9Y697)
NIPSNAP2 (human) = NIPSNAP2 (human) (UniProt O75323)
Sequence of NIPSNAP2 (human) (O75323 24-286 limits assumed): as the sequence (O75323 24-286 limits assumed) above

OGDH (human) = OGDH (human) (UniProt Q02218)
PDE12 (human) = PDE12 (human) (UniProt Q6L8Q7)
PITRM1 (human) = PITRM1 (human) (UniProt Q5JRX3)
Sequence of PITRM1 (human) (Q5JRX3 29-1037 limits assumed): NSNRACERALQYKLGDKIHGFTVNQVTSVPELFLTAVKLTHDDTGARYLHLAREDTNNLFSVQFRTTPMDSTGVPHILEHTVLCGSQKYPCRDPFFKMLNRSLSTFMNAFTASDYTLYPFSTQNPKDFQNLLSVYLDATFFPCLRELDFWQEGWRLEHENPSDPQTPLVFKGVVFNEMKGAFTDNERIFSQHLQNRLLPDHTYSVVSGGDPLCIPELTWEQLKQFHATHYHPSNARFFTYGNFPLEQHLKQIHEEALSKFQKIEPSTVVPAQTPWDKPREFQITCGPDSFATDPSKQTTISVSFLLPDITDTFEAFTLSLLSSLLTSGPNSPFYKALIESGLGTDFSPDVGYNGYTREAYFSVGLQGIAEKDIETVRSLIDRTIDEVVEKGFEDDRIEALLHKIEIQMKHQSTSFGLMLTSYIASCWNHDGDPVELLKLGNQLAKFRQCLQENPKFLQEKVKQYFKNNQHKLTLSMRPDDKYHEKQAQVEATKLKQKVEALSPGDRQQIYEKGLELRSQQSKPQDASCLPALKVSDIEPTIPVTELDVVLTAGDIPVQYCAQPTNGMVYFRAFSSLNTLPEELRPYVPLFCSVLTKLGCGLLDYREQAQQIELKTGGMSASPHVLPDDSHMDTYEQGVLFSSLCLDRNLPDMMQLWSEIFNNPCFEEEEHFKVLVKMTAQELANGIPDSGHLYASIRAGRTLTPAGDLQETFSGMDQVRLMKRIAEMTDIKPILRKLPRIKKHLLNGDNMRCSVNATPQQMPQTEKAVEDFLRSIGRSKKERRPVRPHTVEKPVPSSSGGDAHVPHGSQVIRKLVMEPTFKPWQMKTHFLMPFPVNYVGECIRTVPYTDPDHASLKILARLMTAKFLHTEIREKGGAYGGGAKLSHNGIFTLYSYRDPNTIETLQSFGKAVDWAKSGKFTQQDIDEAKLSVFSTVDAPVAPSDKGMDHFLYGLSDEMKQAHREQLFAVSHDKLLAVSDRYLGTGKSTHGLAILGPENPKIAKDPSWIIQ

PMPCA (human) = PMPCA (human) (UniProt Q10713)
Sequence of PMPCA (human) (Q10713 34-525 limits assumed): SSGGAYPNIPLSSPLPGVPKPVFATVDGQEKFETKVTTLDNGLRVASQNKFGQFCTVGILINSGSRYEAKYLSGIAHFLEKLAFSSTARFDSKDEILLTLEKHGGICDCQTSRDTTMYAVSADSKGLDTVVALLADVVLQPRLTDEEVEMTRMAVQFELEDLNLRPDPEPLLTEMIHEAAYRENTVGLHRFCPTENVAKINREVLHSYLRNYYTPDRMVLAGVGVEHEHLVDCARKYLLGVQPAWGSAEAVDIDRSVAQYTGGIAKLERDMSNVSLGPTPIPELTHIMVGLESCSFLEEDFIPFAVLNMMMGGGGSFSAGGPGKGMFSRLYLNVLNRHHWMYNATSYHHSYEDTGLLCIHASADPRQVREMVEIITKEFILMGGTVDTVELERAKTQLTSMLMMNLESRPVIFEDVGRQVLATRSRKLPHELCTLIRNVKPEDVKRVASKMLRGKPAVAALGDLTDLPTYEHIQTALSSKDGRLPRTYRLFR

PNPT1 (human) = PNPT1 (human) (UniProt Q8TCS8)
POLG (human) = POLG (human) (UniProt P54098)
SFXN4 (human) = SFXN4 (human) (UniProt Q6P4A7)
SSBP1 (human) = SSBP1 (human) (UniProt Q04837)
Sequence of SSBP1 (human) (Q04837 17-148 limits assumed): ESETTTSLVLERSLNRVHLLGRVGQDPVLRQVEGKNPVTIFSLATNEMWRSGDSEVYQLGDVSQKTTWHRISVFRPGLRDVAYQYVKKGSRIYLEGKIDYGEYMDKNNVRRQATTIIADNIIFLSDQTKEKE

SUCLA2 (human) = SUCLA2 (human) (UniProt Q9P2R7)
Sequence of SUCLA2 (human) (Q9P2R7 53-463 limits assumed): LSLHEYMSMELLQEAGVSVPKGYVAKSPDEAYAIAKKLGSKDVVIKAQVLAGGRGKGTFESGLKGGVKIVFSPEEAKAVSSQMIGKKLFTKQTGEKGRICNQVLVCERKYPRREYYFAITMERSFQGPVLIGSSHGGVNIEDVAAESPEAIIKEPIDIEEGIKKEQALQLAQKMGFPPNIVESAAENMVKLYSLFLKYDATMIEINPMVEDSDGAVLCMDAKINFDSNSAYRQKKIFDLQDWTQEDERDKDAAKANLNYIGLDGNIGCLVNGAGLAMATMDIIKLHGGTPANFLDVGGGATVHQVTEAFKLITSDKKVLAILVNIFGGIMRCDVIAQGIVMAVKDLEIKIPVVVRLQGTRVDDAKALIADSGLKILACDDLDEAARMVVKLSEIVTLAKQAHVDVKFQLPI

TAC01 (human) = TAC01 (human) (UniProt Q9BSH4)
TBRG4 (human) = TBRG4 (human) (UniProt Q969Z0)
THEM4 (human) = THEM4 (human) (UniProt Q5T1C6)
THNSL1 (human) = THNSL1 (human) (UniProt Q8IYQ7)
UQCRB (human) = UQCRB (human) (UniProt P14927)
ZADH2 (human) = ZADH2 (human) (UniProt Q8N4Q0)

Substance: FlagBirA-ClpP (WT) (from UniProt P06709 1-321; Q16740 57-277) (enzyme)
- Log2 Fold change (vs control) (AARS2 (human)): -5.73 log2
- Log2 Fold change (vs control) (ABCB10 (human)): -0.24 log2
- Log2 Fold change (vs control) (ABCB7 (human)): -0.45 log2
- Log2 Fold change (vs control) (ACAD10 (human)): -4.09 log2
- Log2 Fold change (vs control) (AFG3L2 (human)): -0.14 log2
- Log2 Fold change (vs control) (AIFM1 (human)): -1.58 log2
- Log2 Fold change (vs control) (ARG2 (human)): -0.16 log2
- Log2 Fold change (vs control) (BCKDHA (human)): -4.32 log2
- Log2 Fold change (vs control) (BCS1L (human)): -0.17 log2
- Log2 Fold change (vs control) (C20orf72 (human)): -3.52 log2
- Log2 Fold change (vs control) (CHCHD3 (human)): -3.46 log2
- Log2 Fold change (vs control) (COQ6 (human)): -3.7 log2
- Log2 Fold change (vs control) (FMC1 (human)): -6.86 log2
- Log2 Fold change (vs control) (GBAS (human)): -2.79 log2
- Log2 Fold change (vs control) (GCDH (human)): -0.17 log2
- Log2 Fold change (vs control) (GLS (human)): -0.71 log2
- Log2 Fold change (vs control) (GTPBP10 (human)): -4.91 log2
- Log2 Fold change (vs control) (HIBCH (human)): -1.55 log2
- Log2 Fold change (vs control) (HINT2 (human)): -1.17 log2
- Log2 Fold change (vs control) (IARS2 (human)): -2.38 log2
- Log2 Fold change (vs control) (IBA57 (human)): -1.05 log2
- Log2 Fold change (vs control) (IDE (human)): -1.97 log2
- Log2 Fold change (vs control) (LYRM7 (human)): -1.38 log2
- Log2 Fold change (vs control) (METTL17 (human)): -3.58 log2
- Log2 Fold change (vs control) (MICU2 (human)): -4.31 log2
- Log2 Fold change (vs control) (MRM3 (human)): -1.62 log2
- Log2 Fold change (vs control) (MRPL10 (human)): -4.46 log2
- Log2 Fold change (vs control) (MRPL19 (human)): -3.51 log2
- Log2 Fold change (vs control) (MRPL44 (human)): -5.04 log2
- Log2 Fold change (vs control) (MRPS11 (human)): -4.25 log2
- Log2 Fold change (vs control) (MRPS17 (human)): -4.25 log2
- Log2 Fold change (vs control) (MRPS6 (human)): -4.52 log2
- Log2 Fold change (vs control) (MTHFD1L (human)): -0.39 log2
- Log2 Fold change (vs control) (NDUFS8 (human)): -2.73 log2
- Log2 Fold change (vs control) (NFS1 (human)): 0.55 log2
- Log2 Fold change (vs control) (NIPSNAP2 (human)): -0.31 log2
- Log2 Fold change (vs control) (OGDH (human)): -3.7 log2
- Log2 Fold change (vs control) (PDE12 (human)): -5.78 log2
- Log2 Fold change (vs control) (PITRM1 (human)): -4.25 log2
- Log2 Fold change (vs control) (PMPCA (human)): -1.21 log2
- Log2 Fold change (vs control) (PNPT1 (human)): 0.32 log2
- Log2 Fold change (vs control) (POLG (human)): -4.32 log2
- Log2 Fold change (vs control) (SFXN4 (human)): -0.58 log2
- Log2 Fold change (vs control) (SSBP1 (human)): 0.07 log2
- Log2 Fold change (vs control) (SUCLA2 (human)): -0.71 log2
- Log2 Fold change (vs control) (TAC01 (human)): -4.82 log2
- Log2 Fold change (vs control) (TBRG4 (human)): 0.28 log2
- Log2 Fold change (vs control) (THEM4 (human)): -0.88 log2
- Log2 Fold change (vs control) (THNSL1 (human)): -1.55 log2
- Log2 Fold change (vs control) (UQCRB (human)): -4.7 log2
- Log2 Fold change (vs control) (ZADH2 (human)): -3.46 log2
